In IntAct's records for PubMed 12810663:

B1: DNA mismatch repair protein Mlh1 (Homo sapiens), P40692 (parent)
chain: MSFVAGVIRRLDETVVNRIAAGEVIQRPANAIKEMIENCLDAKSTSIQVIVKEGGLKLIQIQDNGTGIRKEDLDIVCERFTTSKLQSFEDLASISTYGFRGEALASISHVAHVTITTKTADGKCAYRASYSDGKLKAPPKPCAGNQGTQITVEDLFYNIATRRKALKNPSEEYGKILEVVGRYSVHNAGISFSVKKQGETVADVRTLPNASTVDNIRSIFGNAVSRELIEIGCEDKTLAFKMNGYISNANYSVKKCIFLLFINHRLVESTSLRKAIETVYAAYLPKNTHPFLYLSLEISPQNVDVNVHPTKHEVHFLHEESILERVQQHIESKLLGSNSSRMYFTQTLLPGLAGPSGEMVKSTTSLTSSSTSGSSDKVYAHQMVRTDSREQKLDAFLQPLSKPLSSQPQAIVTEDKTDISSGRARQQDEEMLELPAPAEVAAKNQSLEGDTTKGTSEMSEKRGPTSSNPRKRHREDSDVEMVEDDSRKEMTAACTPRRRIINLTSVLSLQEEINEQGHEVLREMLHNHSFVGCVNPQWALAQHQTKLYLLNTTKLSEELFYQILIYDFANFGVLRLSEPAPLFDLAMLALDSPESGWTEEDGPKEGLAEYIVEFLKKKAEMLADYFSLEIDEEGNLIGLPLLIDNYVPPLEGLPIFILRLATEVNWDEEKECFESLSKECAMFYSIRKQYISEESTLSGQQSEVPGSIPNSWKWTVEHIVYKALRSHILPPKHFTEDGNILQLANLPDLYKVFERC
partner: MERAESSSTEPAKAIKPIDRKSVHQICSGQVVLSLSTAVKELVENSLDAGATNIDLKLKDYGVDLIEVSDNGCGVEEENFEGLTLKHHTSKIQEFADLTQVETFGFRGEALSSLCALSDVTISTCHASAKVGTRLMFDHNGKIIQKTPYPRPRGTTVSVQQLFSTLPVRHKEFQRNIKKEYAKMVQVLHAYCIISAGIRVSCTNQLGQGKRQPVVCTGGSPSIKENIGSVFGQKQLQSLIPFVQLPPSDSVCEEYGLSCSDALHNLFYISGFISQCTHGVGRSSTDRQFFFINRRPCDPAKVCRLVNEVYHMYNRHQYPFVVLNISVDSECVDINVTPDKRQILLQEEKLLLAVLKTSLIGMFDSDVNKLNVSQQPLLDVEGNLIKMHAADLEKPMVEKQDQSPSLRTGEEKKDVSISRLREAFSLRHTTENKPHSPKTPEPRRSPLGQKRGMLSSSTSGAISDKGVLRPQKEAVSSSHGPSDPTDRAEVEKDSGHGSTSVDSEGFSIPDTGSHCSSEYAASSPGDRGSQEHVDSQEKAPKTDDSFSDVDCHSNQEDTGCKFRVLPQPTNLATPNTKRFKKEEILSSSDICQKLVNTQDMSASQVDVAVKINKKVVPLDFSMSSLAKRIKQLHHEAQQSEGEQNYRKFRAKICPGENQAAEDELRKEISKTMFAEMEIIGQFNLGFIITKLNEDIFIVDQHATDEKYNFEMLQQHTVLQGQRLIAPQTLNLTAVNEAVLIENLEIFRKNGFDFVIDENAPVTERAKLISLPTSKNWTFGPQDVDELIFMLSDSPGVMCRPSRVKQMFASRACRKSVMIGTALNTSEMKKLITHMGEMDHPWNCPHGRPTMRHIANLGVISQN
B2: DNA mismatch repair protein Mlh1 (Homo sapiens), P40692 (parent)
chain: B1 chain

Variants of: B1
Settings: with pms2_human PMS2, P54278

Variant | effect of a mutation on the interaction
I107R | with no effect
C77Y | with no effect
T117M | with no effect
M35R | with no effect
P28L | with no effect
S44F | with no effect
I68N | with no effect
G67R | with no effect

Now from value to variant:

effect of a mutation on the interaction | Variant
with no effect | V185G
with no effect | G244D
with no effect | T117R
with no effect | A128P
with no effect | V326A

Variants of: B1
Settings: with pms2_human PMS2, P54278
Remark: another data set of the same source

Variant | effect of a mutation on the interaction
I107R | disrupting interaction strength
C77Y | disrupting interaction strength
I32V | with no effect
T117M | disrupting interaction strength
M35R | disrupting interaction strength
P28L | disrupting interaction strength
S44F | disrupting interaction strength
I68N | disrupting interaction strength
G67R | disrupting interaction strength

More lines, now with the values ahead:

effect of a mutation on the interaction | Variant
disrupting interaction strength | V185G
with no effect | S406N
with no effect | R265H
disrupting interaction strength | G244D
disrupting interaction strength | T117R
disrupting interaction strength | A128P
with no effect | V213M
with no effect | I219V
with no effect | I219L
with no effect | R217C

Variants of: B1
Settings: with pms2_human PMS2, P54278
Remark: another data set of the same source

Variant | effect of a mutation on the interaction
C77Y | decreasing interaction strength

Variants of: B2
Settings: with exo1_human EXO1, Q9UQ84

Variant | effect of a mutation on the interaction
I32V | with no effect
G67R | disrupting interaction strength
I107R | disrupting interaction strength
C77Y | disrupting interaction strength
I68N | disrupting interaction strength
P28L | disrupting interaction strength
M35R | disrupting interaction strength
S44F | disrupting interaction strength

Second part, the variant after the results:

effect of a mutation on the interaction | Variant
disrupting interaction strength | T117R
disrupting interaction strength | T117M
disrupting interaction strength | G244D
with no effect | V213M
with no effect | R217C
disrupting interaction strength | V185G
disrupting interaction strength | A128P
with no effect | R265H
with no effect | I219L
with no effect | I219V
with no effect | S406N
with no effect | V326A
